This assay addresses T1, human CD25-extracellular domain (CD25-ECD) (human, UniProt P01589 22-240).
T1 construct: also called human CD25-ECD; hCD25 ECD
T1 sequence: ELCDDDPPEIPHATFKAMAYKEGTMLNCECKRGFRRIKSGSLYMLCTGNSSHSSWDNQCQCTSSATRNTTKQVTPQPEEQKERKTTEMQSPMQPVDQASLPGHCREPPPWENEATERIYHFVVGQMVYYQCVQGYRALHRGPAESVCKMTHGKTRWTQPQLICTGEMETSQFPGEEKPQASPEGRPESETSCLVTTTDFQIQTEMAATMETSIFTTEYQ
The assay can be described thus: SPR, V-body on chip, human CD25-ECD 500 nM then IL2-Fc 1000 nM. As to the method:
The sensorgrams display IL2-Fc competition: association of human CD25-extracellular domain (ECD) to the V-body followed either by additional binding by IL2-Fc, Indicating an unoccupied epitope (non-overlapping epitopes), or no IL2-Fc binding, indicating epitope blocking (overlapping epitopes), and a buffer control, association and dissociation of human CD25-ECD in the absence of IL2-Fc. Human CD25-ECD was injected (500 nM) under physiological conditions (50 mM HEPES pH 7.4, 150 mM NaCl, 0.1% (w/v) BSA, 0.05% (v/v) Tween20, 25° C.) followed by human IL2-Fc (1000 nM). V-body ODY-83B03Hu1 was identified as a ligand competitive binder. ODY-83B05Hu1 and ODY-83F07Hu1 were identified as non-competitive binders.
A general note: In SPR one partner is held on a chip, and binding of the other changes the refractive index at the surface.

Residue numbers refer to the chain shown, from its start.

B1: ODY-83B03Hu1 (VHH)
VHH: EVQLVESGGGLVQPGGSLRLSCAASGMPLVAMGWYRQAPGKQRELVASISSGGNTGYADSVKGRFTISRDNAKKTVYLQMNSVRPEDTGVYYCNIYRSQVPPTRYSWGQGTQVTVSS
notes: Captured on an SPR chip spot; also called ODY-83B03 humanized VHH
B1: the binding result is “binds”.

B2: ODY-83B05Hu1 (VHH)
VHH: EVQLLESGGGLVQPGGSLRLSCAASGFTLDYYAIGWFRQAPGKEREGVLSISSTDGRTYYADSVKGRFTISRDNPKNTVYLQLNSLRPEDTAVYYCAAKRLGPMVHRYSLEVLTPLFLDEYDYWGQGTQVTVSS
notes: Captured on an SPR chip spot; also called ODY-83B05 humanized VHH; ODY-83805Hu1
For the molecule B2, the binding result is listed as “binds”.

B3: ODY-83F07Hu1 (VHH)
VHH: B2 VHH with R107Q
notes: Captured on an SPR chip spot; also called ODY-83F07 humanized VHH
As for B3, the binding result was “binds”.

Source of the values: patent publication US20260258143A1 (ODYSSEY THERAPEUTICS, published 2026).
